{
  "source": "the supplement of paper PMC9112550",
  "about": "“Optimization of the antimicrobial peptide Bac7 by deep mutational scanning” (BMC Biology, 2022);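 also: peptides expressed intracellularly from a pBAD plasmid library in pooled LB shake-flask culture, induced with 0.3% L-arabinose, DNA abundance read by NGS, three biological replicates, DESeq2 with apeglm shrinkage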",
  "data": [
    {"tested_on": "Escherichia coli TOP10", "experiment": "shrunken log2 fold change of peptide-encoding DNA abundance (4.5 h post-induction vs induction); higher = less antimicrobial activity (less host growth inhibition)", "conditions": "time post-induction: 4.5 h; library: site-saturation at positions 5, 18, 19, 20", "values": [
      {"sequence": "RRIRDRPPRLPRPRPRPTPGPRP", "shrunken log2 fold change": 0.468},
      {"sequence": "RRIRPRPPRLPRPRPRPQPNPRP", "shrunken log2 fold change": 0.185},
      {"sequence": "RRIRMRPPRLPRPRPRPWSPPRP", "shrunken log2 fold change": -0.508},
      {"sequence": "RRIRQRPPRLPRPRPRPFPLPRP", "shrunken log2 fold change": -0.0585},
      {"sequence": "RRIRDRPPRLPRPRPRPGDMPRP", "shrunken log2 fold change": 0.164},
      {"sequence": "RRIRQRPPRLPRPRPRPAGPPRP", "shrunken log2 fold change": -0.000608},
      {"sequence": "RRIRVRPPRLPRPRPRPMRDPRP", "shrunken log2 fold change": 0.0208},
      {"sequence": "RRIRTRPPRLPRPRPRPRGNPRP", "shrunken log2 fold change": 0.0399},
      {"sequence": "RRIRQRPPRLPRPRPRPNCHPRP", "shrunken log2 fold change": -0.548},
      {"sequence": "RRIRNRPPRLPRPRPRPEWKPRP", "shrunken log2 fold change": 0.0303},
      {"sequence": "RRIRVRPPRLPRPRPRPVMGPRP", "shrunken log2 fold change": 0.216},
      {"sequence": "RRIRLRPPRLPRPRPRPKIRPRP", "shrunken log2 fold change": -0.128},
      {"sequence": "RRIRNRPPRLPRPRPRPPMWPRP", "shrunken log2 fold change": -0.115},
      {"sequence": "RRIRVRPPRLPRPRPRPGIRPRP", "shrunken log2 fold change": -0.0476},
      {"sequence": "RRIRHRPPRLPRPRPRPWPKPRP", "shrunken log2 fold change": 0.015},
      {"sequence": "RRIRVRPPRLPRPRPRPFPTPRP", "shrunken log2 fold change": 0.756},
      {"sequence": "RRIRSRPPRLPRPRPRPNCLPRP", "shrunken log2 fold change": -0.28},
      {"sequence": "RRIRSRPPRLPRPRPRPSCYPRP", "shrunken log2 fold change": -0.511},
      {"sequence": "RRIRWRPPRLPRPRPRPGGNPRP", "shrunken log2 fold change": 0.0972},
      {"sequence": "RRIRGRPPRLPRPRPRPAKYPRP", "shrunken log2 fold change": 0.155},
      {"sequence": "RRIRKRPPRLPRPRPRPIFIPRP", "shrunken log2 fold change": -0.173},
      {"sequence": "RRIRERPPRLPRPRPRPAHKPRP", "shrunken log2 fold change": -0.154},
      {"sequence": "RRIRVRPPRLPRPRPRPEIHPRP", "shrunken log2 fold change": -0.0841},
      {"sequence": "RRIRTRPPRLPRPRPRPERVPRP", "shrunken log2 fold change": 0.296},
      {"sequence": "RRIRSRPPRLPRPRPRPHFYPRP", "shrunken log2 fold change": 0.166},
      {"sequence": "RRIRPRPPRLPRPRPRPDWFPRP", "shrunken log2 fold change": 0.0805},
      {"sequence": "RRIRDRPPRLPRPRPRPNHQPRP", "shrunken log2 fold change": -0.303},
      {"sequence": "RRIRARPPRLPRPRPRPHNIPRP", "shrunken log2 fold change": -0.124},
      {"sequence": "RRIRMRPPRLPRPRPRPTAMPRP", "shrunken log2 fold change": 1.14},
      {"sequence": "RRIRVRPPRLPRPRPRPGNHPRP", "shrunken log2 fold change": -0.245},
      {"sequence": "RRIRGRPPRLPRPRPRPWRMPRP", "shrunken log2 fold change": -0.000462},
      {"sequence": "RRIRERPPRLPRPRPRPYNSPRP", "shrunken log2 fold change": -0.0287},
      {"sequence": "RRIRWRPPRLPRPRPRPVWDPRP", "shrunken log2 fold change": 0.177},
      {"sequence": "RRIRERPPRLPRPRPRPANKPRP", "shrunken log2 fold change": -0.632},
      {"sequence": "RRIRLRPPRLPRPRPRPPPCPRP", "shrunken log2 fold change": 0.846},
      {"sequence": "RRIRDRPPRLPRPRPRPTRDPRP", "shrunken log2 fold change": 0.734},
      {"sequence": "RRIRPRPPRLPRPRPRPELYPRP", "shrunken log2 fold change": 0.0891},
      {"sequence": "RRIRTRPPRLPRPRPRPIDTPRP", "shrunken log2 fold change": -0.157},
      {"sequence": "RRIRERPPRLPRPRPRPYWFPRP", "shrunken log2 fold change": -1.02},
      {"sequence": "RRIRTRPPRLPRPRPRPFLHPRP", "shrunken log2 fold change": -0.524},
      {"sequence": "RRIRYRPPRLPRPRPRPDSMPRP", "shrunken log2 fold change": 0.00804},
      {"sequence": "RRIRMRPPRLPRPRPRPWSTPRP", "shrunken log2 fold change": -0.144},
      {"sequence": "RRIRARPPRLPRPRPRPCEAPRP", "shrunken log2 fold change": 0.762},
      {"sequence": "RRIRNRPPRLPRPRPRPTPFPRP", "shrunken log2 fold change": -0.07},
      {"sequence": "RRIRYRPPRLPRPRPRPPTWPRP", "shrunken log2 fold change": -0.0624},
      {"sequence": "RRIRIRPPRLPRPRPRPAYPPRP", "shrunken log2 fold change": -0.829},
      {"sequence": "RRIRPRPPRLPRPRPRPAFWPRP", "shrunken log2 fold change": 0.459},
      {"sequence": "RRIRLRPPRLPRPRPRPVCRPRP", "shrunken log2 fold change": 0.091},
      {"sequence": "RRIRDRPPRLPRPRPRPLFSPRP", "shrunken log2 fold change": 0.0525},
      {"sequence": "RRIRPRPPRLPRPRPRPLNDPRP", "shrunken log2 fold change": -0.298},
      {"sequence": "RRIRQRPPRLPRPRPRPPGGPRP", "shrunken log2 fold change": 0.448},
      {"sequence": "RRIRGRPPRLPRPRPRPELTPRP", "shrunken log2 fold change": 2.02},
      {"sequence": "RRIRDRPPRLPRPRPRPFSEPRP", "shrunken log2 fold change": -0.0447},
      {"sequence": "RRIRERPPRLPRPRPRPAGKPRP", "shrunken log2 fold change": -0.0958},
      {"sequence": "RRIRARPPRLPRPRPRPPLEPRP", "shrunken log2 fold change": 0.583},
      {"sequence": "RRIRGRPPRLPRPRPRPTRQPRP", "shrunken log2 fold change": 0.577},
      {"sequence": "RRIRFRPPRLPRPRPRPSMLPRP", "shrunken log2 fold change": -0.47},
      {"sequence": "RRIRRRPPRLPRPRPRPGAFPRP", "shrunken log2 fold change": 0.539},
      {"sequence": "RRIRNRPPRLPRPRPRPQLEPRP", "shrunken log2 fold change": 0.307},
      {"sequence": "RRIRQRPPRLPRPRPRPFAEPRP", "shrunken log2 fold change": -0.00183},
      {"sequence": "RRIRARPPRLPRPRPRPKDWPRP", "shrunken log2 fold change": 0.578},
      {"sequence": "RRIRGRPPRLPRPRPRPHHFPRP", "shrunken log2 fold change": -0.0789},
      {"sequence": "RRIRNRPPRLPRPRPRPICHPRP", "shrunken log2 fold change": -0.1},
      {"sequence": "RRIRMRPPRLPRPRPRPSDNPRP", "shrunken log2 fold change": 0.0409},
      {"sequence": "RRIRYRPPRLPRPRPRPWRVPRP", "shrunken log2 fold change": 0.0112},
      {"sequence": "RRIRCRPPRLPRPRPRPCGLPRP", "shrunken log2 fold change": 0.0617},
      {"sequence": "RRIRRRPPRLPRPRPRPMRKPRP", "shrunken log2 fold change": 0.58},
      {"sequence": "RRIRMRPPRLPRPRPRPMFMPRP", "shrunken log2 fold change": 0.0101},
      {"sequence": "RRIRQRPPRLPRPRPRPPFHPRP", "shrunken log2 fold change": 0.102},
      {"sequence": "RRIRMRPPRLPRPRPRPWGGPRP", "shrunken log2 fold change": 0.414},
      {"sequence": "RRIRDRPPRLPRPRPRPFRDPRP", "shrunken log2 fold change": -0.00232},
      {"sequence": "RRIRWRPPRLPRPRPRPTEAPRP", "shrunken log2 fold change": 0.214},
      {"sequence": "RRIRSRPPRLPRPRPRPRDNPRP", "shrunken log2 fold change": -0.0866},
      {"sequence": "RRIRHRPPRLPRPRPRPVLQPRP", "shrunken log2 fold change": -0.169},
      {"sequence": "RRIRFRPPRLPRPRPRPGGPPRP", "shrunken log2 fold change": 0.511}
    ]}
  ]
}
